Source: patent publication US20160376333A1 (University of Washington, published 2016)

Assays:
[1] = target: T1, human Mcl-1 a.a. 172-327 with C-terminal avi-6his tag (human); test: BLI
T1 chain: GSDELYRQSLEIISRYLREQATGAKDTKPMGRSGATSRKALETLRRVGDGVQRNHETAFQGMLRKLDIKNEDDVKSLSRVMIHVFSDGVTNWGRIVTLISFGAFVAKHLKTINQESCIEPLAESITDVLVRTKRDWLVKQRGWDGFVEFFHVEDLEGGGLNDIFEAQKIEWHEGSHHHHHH

[2] = target: T2, Epstein-Barr virus BHRF1 a.a. 1-161 with C-terminal avi-6his tag (Epstein-Barr virus); test: BLI, biotinylated target on streptavidin sensor
T2 construct: also called EBV BHRF1; BHRF1-biotin
T2 chain: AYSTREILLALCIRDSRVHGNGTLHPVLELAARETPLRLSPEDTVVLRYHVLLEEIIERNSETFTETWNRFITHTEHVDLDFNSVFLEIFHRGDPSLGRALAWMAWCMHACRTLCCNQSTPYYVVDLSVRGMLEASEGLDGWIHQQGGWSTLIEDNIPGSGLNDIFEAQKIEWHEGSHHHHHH

[3] = target: T3, human Bcl-2 a.a. 1-207 with C-terminal avi-6his tag (human, UniProt P10415 2-207); test: BLI, biotinylated target on streptavidin sensor
[4] = target: T4, human Bcl-w a.a. 1-182 with C-terminal avi-6his tag (human, UniProt Q92843 1-182); test: BLI, biotinylated target on streptavidin sensor
T4 construct: range 1-182; also called BCL2L2
T4 sequence: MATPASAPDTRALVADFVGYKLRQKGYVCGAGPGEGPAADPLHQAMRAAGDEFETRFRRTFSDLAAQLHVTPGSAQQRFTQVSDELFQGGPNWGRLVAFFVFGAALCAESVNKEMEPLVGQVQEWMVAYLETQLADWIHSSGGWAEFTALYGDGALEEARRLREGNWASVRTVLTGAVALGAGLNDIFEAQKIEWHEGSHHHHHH

[5] = target: T1, human Mcl-1 a.a. 172-327 with …; test: BLI, biotinylated target on streptavidin sensor
[6] = target: T5, human Bfl-1 a.a. 1-153 (C4S) with C-terminal avi-6his tag (human); test: BLI, biotinylated target on streptavidin sensor
T5 construct: also called A1/Bfl-1
T5 chain: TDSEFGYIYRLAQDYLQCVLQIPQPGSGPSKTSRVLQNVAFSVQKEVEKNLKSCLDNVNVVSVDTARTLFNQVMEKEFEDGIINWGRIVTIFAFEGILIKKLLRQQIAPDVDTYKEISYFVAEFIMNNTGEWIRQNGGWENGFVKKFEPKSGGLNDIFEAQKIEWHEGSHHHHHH

[7] = target: T6, human Bcl-XL a.a. 1-205 with C-terminal avi-6his tag (human, UniProt Q07817 2-206); test: BLI, biotinylated target on streptavidin sensor
T6 construct: also called BCL2L1

[8] = target: T7, human Bcl-B a.a. 11-175 with C-terminal avi-6his tag (human); test: BLI, biotinylated target on streptavidin sensor
T7 construct: also called BCL2L10
T7 chain: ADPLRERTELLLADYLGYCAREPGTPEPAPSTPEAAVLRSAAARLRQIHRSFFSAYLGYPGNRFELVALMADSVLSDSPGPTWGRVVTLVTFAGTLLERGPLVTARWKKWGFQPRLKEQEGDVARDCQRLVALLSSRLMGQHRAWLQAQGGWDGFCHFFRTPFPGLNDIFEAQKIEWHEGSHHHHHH

[9] = target: T3, human Bcl-2 a.a. 1-207 with C-terminal …; test: yeast surface display titration; apparent binding constant (mean ± SE, n = 3-6)
[10] = target: T4, human Bcl-w a.a. 1-182 with C-terminal …; test: as above
[11] = target: T1, human Mcl-1 a.a. 172-327 with …; test: as above
[12] = target: T5, human Bfl-1 a.a. 1-153 (C4S) with …; test: as above
[13] = target: T6, human Bcl-XL a.a. 1-205 with C-terminal …; test: as above
[14] = target: T3, human Bcl-2 a.a. 1-207 with C-terminal …; test: BLI at a single analyte concentration (50 nM, 600 s association, then buffer); biotinylated BCL2 protein on a streptavidin sensor
[15] = target: T4, human Bcl-w a.a. 1-182 with C-terminal …; test: as above
[16] = target: T1, human Mcl-1 a.a. 172-327 with …; test: as above
[17] = target: T5, human Bfl-1 a.a. 1-153 (C4S) with …; test: as above
[18] = target: T6, human Bcl-XL a.a. 1-205 with C-terminal …; test: as above
[19] = target: T7, human Bcl-B a.a. 11-175 with C-terminal …; test: as above
[20] = target: T2, Epstein-Barr virus BHRF1 a.a. 1-161 …; test: effect of the mutation on specificity (KD(BHRF1)/KD(Mcl-1) ratio): change in binding energy for BHRF1 minus that for Mcl-1, relative to BbpD04; assay not named on the sheet
[21] = target: T2, Epstein-Barr virus BHRF1 a.a. 1-161 …; test: yeast surface display titration (apparent KD)
[22] = target: T3, human Bcl-2 a.a. 1-207 with C-terminal …; test: yeast surface display titration (apparent KD)
[23] = target: T4, human Bcl-w a.a. 1-182 with C-terminal …; test: yeast surface display titration (apparent KD)
[24] = target: T1, human Mcl-1 a.a. 172-327 with …; test: yeast surface display titration (apparent KD)
[25] = target: T5, human Bfl-1 a.a. 1-153 (C4S) with …; test: yeast surface display titration (apparent KD)
[26] = target: T6, human Bcl-XL a.a. 1-205 with C-terminal …; test: yeast surface display titration (apparent KD)
[27] = target: T6, human Bcl-XL a.a. 1-205 with C-terminal …; test: ratio of the KD of the next tightest BCL2 protein to the KD of the target, BLI
[28] = target: T3, human Bcl-2 a.a. 1-207 with C-terminal …; test: BLI, biotinylated target on streptavidin sensor, range of analyte concentrations
Target sequence in this assay (P10415 other isoform, or with tags, fused parts or gaps limits assumed): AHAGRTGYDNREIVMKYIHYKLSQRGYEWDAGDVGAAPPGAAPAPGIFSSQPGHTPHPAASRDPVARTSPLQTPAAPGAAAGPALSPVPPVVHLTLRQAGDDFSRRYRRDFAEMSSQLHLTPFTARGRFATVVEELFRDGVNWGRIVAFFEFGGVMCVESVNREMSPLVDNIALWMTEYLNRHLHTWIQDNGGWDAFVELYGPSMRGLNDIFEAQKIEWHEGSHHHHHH

[29] = target: T4, human Bcl-w a.a. 1-182 with C-terminal …; test: as above
[30] = target: T6, human Bcl-XL a.a. 1-205 with C-terminal …; test: as above
[31] = target: T1, human Mcl-1 a.a. 172-327 with …; test: as above
[32] = target: T7, human Bcl-B a.a. 11-175 with C-terminal …; test: as above
[33] = target: T4, human Bcl-w a.a. 1-182 with C-terminal …; test: ratio of the KD of the next tightest BCL2 protein to the KD of the target, BLI
[34] = target: T5, human Bfl-1 a.a. 1-153 (C4S) with …; test: BLI, biotinylated target on streptavidin sensor, range of analyte concentrations

B1: BINDI N62S (designed binder)
chain: ADPKKVLDKAKDQAENRVRELKQKLEELYKEARKLDLTQEMRRKLELRYIAAMLMAIGDIYSAIRQAKQEADKLKKAGLVNSQQLDELKRRLEELKEEASRKARDYGREFQLKLEY
fold decrease of affinity relative to BINDI [1]: 6 fold | Kd [2]: 0.16 nM | Kd [3]: 30000 nM | Kd [4]: 4600 nM | Kd [5]: 230 nM | Kd [6]: 4000 nM | Kd [7]: 8000 nM | Kd [8]: 50000 nM

B2: BbpD04.2 C103V (designed binder)
designed protein: ADWKKVLDKAKDIAENRVRELKQKLEEFYKEAMKLDLTQEMRRKLMLRWIAAMLMAIGDIFNAIRQAKQEADKLKKAGLVNSQQLDELKRRLEELKEEASRKVRDYGREFQLKLEY
Kd [9]: 12.6 nM | Kd [10]: 9.6 nM | Kd [11]: 2.3 nM | Kd [12]: 19 nM | Kd [13]: 20 nM

B3: M-CDP03 (designed binder)
chain: ADPKKVLDKAKDQAENRVRELKQDLERLYKEARKLDLTQEMRRKLQEKAAAAMIRAIGDINNAIYQALQEADKLKKAGLVNSQQLDELKRRLEELQKEASRKAQAYGEEFMLKLEY
binding result [14]: no binding (tested: 50 nM) | binding result [15]: no binding (tested: 50 nM) | binding result [16]: binds | binding result [17]: no binding (tested: 50 nM) | binding result [18]: no binding (tested: 50 nM) | binding result [19]: no binding (tested: 50 nM)

B4: E48R (designed binder)
designed protein: ADWKKVLDKAKDIAENRVREIKQKLEEFYKKAMKLDLTQEMRRKLMLRWIAAMLMAIGDIFNAIEQAKQEADKLKKAGQVNSQLLDELKRRLEELKEEASRKCHDYGREFQLKLEY
[..] ΔΔG BHRF1 - ΔΔG Mcl-1 [20]: -0.762 kcal/mol

B5: BbpD04.2 (designed binder)
chain: ADWKKVLDKAKDIAENRVRELKQKLEEFYKEAMKLDLTQEMRRKLMLRWIAAMLMAIGDIFNAIRQAKQEADKLKKAGLVNSQQLDELKRRLEELKEEASRKCRDYGREFQLKLEY
Kd [21]: 0.6 nM | Kd [22]: 33 nM | Kd [23]: 40 nM | Kd [24]: 26 nM | Kd [25]: 70 nM | Kd [26]: 31 nM

B6: XINDI (designed binder)
chain: ADPKKVLDKAKDRAENVVRKLKKELEELYKEARKLDLTQEMRDRIRRTAIAARFQAHGDIFHAIKHAKEEARKLKKAGLVNSQQLDELKRRLRELDEEAEQRAEKLGKEFRLKLEY
notes: also called X-ECM04; αBCLXL
Specificity [27]: 660 fold | Kd [28]: 3700 nM | Kd [29]: 40000 nM | Kd [30]: 5.59 nM

B7: X-CDP07 (designed binder)
chain: ADPKKVLDKAKDRAENVVRKLKKELEELYKEARKLDLTQEMRDRIRLAAIAARIAAFGDIFHAIMEALEEARKLKKAGLVNSQQLDELKRRLEELDEEAAQRAEKLGKEFELKLEY
Specificity [27]: 6.46 fold | Kd [28]: 3.81 nM | Kd [29]: 14.9 nM | Kd [31]: 174 nM | apparent Kd (pooled screen) [30]: 0.59 nM | Kd [32]: 107 nM

B8: W-CDP03 (designed binder)
chain: DPKKVFDEAKDRAENNVRRLKQKLEELYKEARKKDLTQEEREKLKEKYKTAMAAAALAAIGDAFNALLKARKLHKNGQVNEQQLEELARRLQELAKEAFQKAKDYANEFEYKLEY
Specificity [33]: 0.9 fold | Kd [28]: 18.8 nM | apparent Kd (pooled screen) [29]: 8 nM | Kd [31]: 55.3 nM | Kd [34]: 400 nM | Kd [30]: 7.43 nM | Kd [32]: 400 nM

B9: WINDI (designed binder)
chain: DPKKVFDELKDRAENNVRRLKQKLEELYKEARKKDLTQEEREKLKTKYKTAMQLAALAAEGDIMNALLKARKLHKNGQVNEQQLEELARRLMELAKEAFQKAKDYANEFKYKLEY
notes: also called W-ECM01; αBCLW
Specificity [33]: 1590 fold | Kd [28]: 5700 nM | Kd [29]: 1.01 nM | Kd [30]: 1610 nM
